Measured values as given in publication PMC11851098 (Nucleic Acids Research, 2025).

Experiments:
SAXS = molecular target: the molecule itself; assay: SAXS
Suv3 helicase = molecular target: T1, Suv3 helicase (UniProt Q8IYB8 23-786, Alexa 647 label (site not stated) in the MST assay); assay: MST
T1 sequence (looked up): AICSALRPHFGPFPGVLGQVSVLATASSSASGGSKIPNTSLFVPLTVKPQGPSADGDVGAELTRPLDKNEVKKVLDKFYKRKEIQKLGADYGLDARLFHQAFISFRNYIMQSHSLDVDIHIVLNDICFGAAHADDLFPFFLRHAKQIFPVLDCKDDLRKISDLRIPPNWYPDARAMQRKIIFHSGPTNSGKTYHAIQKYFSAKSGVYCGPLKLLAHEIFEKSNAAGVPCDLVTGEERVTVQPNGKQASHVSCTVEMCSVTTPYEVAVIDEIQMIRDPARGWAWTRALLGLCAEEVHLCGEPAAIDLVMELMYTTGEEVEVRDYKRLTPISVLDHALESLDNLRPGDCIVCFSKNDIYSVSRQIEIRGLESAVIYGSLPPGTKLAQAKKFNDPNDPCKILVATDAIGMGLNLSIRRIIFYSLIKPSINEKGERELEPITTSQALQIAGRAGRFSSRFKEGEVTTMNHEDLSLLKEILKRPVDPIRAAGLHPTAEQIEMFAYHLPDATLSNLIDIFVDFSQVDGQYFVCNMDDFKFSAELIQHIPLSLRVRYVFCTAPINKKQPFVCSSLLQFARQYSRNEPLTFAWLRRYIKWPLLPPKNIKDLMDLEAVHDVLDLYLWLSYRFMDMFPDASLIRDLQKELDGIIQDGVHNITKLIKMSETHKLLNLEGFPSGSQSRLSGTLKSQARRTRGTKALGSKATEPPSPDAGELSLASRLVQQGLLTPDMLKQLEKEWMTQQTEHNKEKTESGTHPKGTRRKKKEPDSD

Kd (Suv3 helicase): 386 ± 64 nM
B1: hPNPase P467S mutant, residues 46-783 (enzyme, human, UniProt Q8TCS8 46-783, looked up)
chain: AVAVDLGNRKLEISSGKLARFADGSAVVQSGDTAVMVTAVSKTKPSPSQFMPLVVDYRQKAAAAGRIPTNYLRREIGTSDKEILTSRIIDRSIRPLFPAGYFYDTQVLCNLLAVDGVNEPDVLAINGASVALSLSDIPWNGPVGAVRIGIIDGEYVVNPTRKEMSSSTLNLVVAGAPKSQIVMLEASAENILQQDFCHAIKVGVKYTQQIIQGIQQLVKETGVTKRTPQKLFTPSPEIVKYTHKLAMERLYAVFTDYEHDKVSRDEAVNKIRLDTEEQLKEKFPEADPYEIIESFNVVAKEVFRSIVLNEYKRCDGRDLTSLRNVSCEVDMFKTLHGSALFQRGQTQVLCTVTFDSLESGIKSDQVITAINGIKDKNFMLHYEFPPYATNEIGKVTGLNRRELGHGALAEKALYPVIPRDFSFTIRVTSEVLESNGSSSMASACGGSLALMDSGVPISSAVAGVAIGLVTKTDPEKGEIEDYRLLTDILGIEDYNGDMDFKIAGTNKGITALQADIKLPGIPIKIVMEAIQQASVAKKEILQIMNKTISKPRASRKENGPVVETVQVPLSKRAKFVGPGGYNLKKLQAETGVTISQVDEETFSVFAPTPSAMHEARDFITEICKDDQEQQLEFGAVYTATITEIRDTGVMVKLYPNMTAVLLHNTQLDQRKIKHPTALGLEVGQEIQVKYFGRDPADGRMRLSRKVLQSPATTVVRTLNDRSSIVMGEPISQSSSNSQ
stoichiometry N (SAXS): 3
